For the test, the target named is zebrafish TRPC4 (TRPC4DR) (Danio rerio (zebrafish)). The test is described as follows: cryo-EM structure; TRPC4DR in amphipols A8-35, unliganded (apo), closed state; buffer C (PBS pH 7.4, 1 mM TCEP); 0.25 mg/ml on the grid; C4 symmetry imposed; 3.6 Å.

One substance from PMC5951680 can be followed below.

Broadly, the stoichiometry N is a count of units in the complex or per binding partner.

In the case of “zebrafish TRPC4 (TRPC4DR) (natural protein)”, the stoichiometry N is 4.
